Source: article PMC7439480, “Phosphorylation-Dependent Assembly of a 14-3-3 Mediated Signaling Complex during Red Blood Cell Invasion by Plasmodium falciparum Merozoites” (mBio, 2020)
Non-standard residues stand in square brackets, D forms with d. No end group written: not given here. pS = N[C@@H](COP(=O)(O)O)C(=O)O

T1: recombinant glutathione S-transferase (GST)-tagged Pf14-3-3I protein (P. falciparum, UniProt C0H4V6 1-262)
T1 construct: 14-3-3 protein I, P. falciparum, PF3D7_0818200; also called Pf14-3-3I-GST; recombinant Pf14-3-3I; source: recombinant
T1 sequence: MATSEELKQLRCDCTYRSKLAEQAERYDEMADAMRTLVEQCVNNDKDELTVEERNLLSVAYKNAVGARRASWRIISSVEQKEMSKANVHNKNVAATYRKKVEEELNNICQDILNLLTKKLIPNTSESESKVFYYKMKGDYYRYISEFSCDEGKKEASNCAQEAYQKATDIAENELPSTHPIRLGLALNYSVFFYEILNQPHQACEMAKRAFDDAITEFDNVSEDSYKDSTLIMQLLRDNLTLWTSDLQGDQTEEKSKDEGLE


Biological target: T1, recombinant glutathione S-transferase …
Assay: pull-down; peptides coupled to agarose beads (Pierce co-IP kit) incubated with GST-tagged Pf14-3-3I; eluates blotted with anti-Pf14-3-3I mouse sera; noncoated beads as control
Details: both partners purified

Binder	binding result
ARSH[pS]YPA (Coupled to agarose beads (Pierce co-IP kit) for the pull-down; also called phosphopeptide AA; source: synthetic peptide) [14-3-3 binding peptide AA (ARSHpSYPA)]	binds
RLYH[pS]LPA (Coupled to agarose beads (Pierce co-IP kit) for the pull-down; also called phosphopeptide RA; source: synthetic peptide) [14-3-3 binding peptide RA (RLYHpSLPA)]	binds
